Results on six molecules are retold here after publication PMC4192074.

Series [1] has as its target T1, Dis3L2 wild type (mouse, UniProt Q8CI75 1-870).
T1 sequence: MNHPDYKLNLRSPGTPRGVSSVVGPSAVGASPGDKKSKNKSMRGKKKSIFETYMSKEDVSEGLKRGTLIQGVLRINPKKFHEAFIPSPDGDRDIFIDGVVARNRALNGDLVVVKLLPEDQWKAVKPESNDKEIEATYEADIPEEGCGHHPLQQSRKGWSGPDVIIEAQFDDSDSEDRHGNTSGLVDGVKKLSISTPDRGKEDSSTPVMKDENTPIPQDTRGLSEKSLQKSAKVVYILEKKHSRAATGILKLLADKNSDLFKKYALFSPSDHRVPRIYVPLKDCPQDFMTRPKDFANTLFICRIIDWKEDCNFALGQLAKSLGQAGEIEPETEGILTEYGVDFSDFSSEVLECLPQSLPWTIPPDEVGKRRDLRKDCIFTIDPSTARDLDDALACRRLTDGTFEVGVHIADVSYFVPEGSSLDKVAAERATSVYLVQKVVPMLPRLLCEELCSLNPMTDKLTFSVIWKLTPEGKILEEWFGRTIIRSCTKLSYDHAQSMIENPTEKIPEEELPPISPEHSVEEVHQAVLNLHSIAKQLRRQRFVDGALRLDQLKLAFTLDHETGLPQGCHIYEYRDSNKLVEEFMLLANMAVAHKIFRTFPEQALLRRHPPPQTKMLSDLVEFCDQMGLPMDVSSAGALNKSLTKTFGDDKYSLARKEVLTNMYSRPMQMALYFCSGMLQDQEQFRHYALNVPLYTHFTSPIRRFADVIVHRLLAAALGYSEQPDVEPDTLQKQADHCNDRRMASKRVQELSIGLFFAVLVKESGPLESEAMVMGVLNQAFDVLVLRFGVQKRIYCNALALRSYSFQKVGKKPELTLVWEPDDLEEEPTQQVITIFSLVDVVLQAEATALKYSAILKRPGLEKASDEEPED
Put plainly: filter binding.

The target of series [2] is T2, Dis3L2 truncated D389N (crystal construct) (mouse, UniProt Q8CI75 37-857, D389N;del148-169;del194-221).
T2 sequence: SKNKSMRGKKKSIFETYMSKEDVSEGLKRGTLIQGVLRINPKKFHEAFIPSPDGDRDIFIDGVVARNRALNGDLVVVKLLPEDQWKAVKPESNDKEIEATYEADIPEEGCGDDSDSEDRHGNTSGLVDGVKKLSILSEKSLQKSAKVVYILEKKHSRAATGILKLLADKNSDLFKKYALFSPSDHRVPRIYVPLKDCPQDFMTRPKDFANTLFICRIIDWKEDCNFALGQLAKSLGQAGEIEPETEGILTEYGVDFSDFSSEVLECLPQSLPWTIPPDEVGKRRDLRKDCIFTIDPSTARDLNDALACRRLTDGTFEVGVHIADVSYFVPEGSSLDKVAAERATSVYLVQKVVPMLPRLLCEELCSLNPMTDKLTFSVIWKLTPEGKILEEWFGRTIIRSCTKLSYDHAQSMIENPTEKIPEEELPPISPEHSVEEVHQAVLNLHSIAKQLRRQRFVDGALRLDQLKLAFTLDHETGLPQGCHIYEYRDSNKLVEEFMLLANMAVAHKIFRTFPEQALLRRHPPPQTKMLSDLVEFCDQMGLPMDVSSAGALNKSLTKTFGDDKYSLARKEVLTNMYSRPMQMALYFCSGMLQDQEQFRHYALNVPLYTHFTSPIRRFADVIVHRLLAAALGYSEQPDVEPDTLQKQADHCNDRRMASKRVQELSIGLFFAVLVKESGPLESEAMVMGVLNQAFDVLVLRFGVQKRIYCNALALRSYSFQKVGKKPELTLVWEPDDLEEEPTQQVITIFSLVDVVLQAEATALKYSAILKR
Kind of series: X-ray crystallography.

For series [3], the target named is T1, Dis3L2 wild type. Kind of series: filter binding. This is another data set of the same source.
In series [4] the target is T1, Dis3L2 wild type. Put plainly: filter binding. The source holds these as a separate data set.
The target of series [5] is T1, Dis3L2 wild type. Kind of series: filter binding. The source holds these as a separate data set.

Where two headings read alike, the source gives them in different places.

In turn, AAAAAAAAAAAAAAA (ssRNA) [A15] displayed a binding signal with Dis3L2 wild type [1] of over 200 fold weaker than U15.

UUUUUUUUUUUUU (ssRNA) [U13]: the binding result in series [2] is recorded as “binds”.

UUUUUUUUUUUUUUU (ssRNA) [U15]: in the series with Dis3L2 wild type [3], the binding result is given as “binds”.

The molecule CCCCCCCCCCCCCCC (ssRNA) [C15] registered a binding signal with Dis3L2 wild type [1] of over 200 fold weaker than U15.

B1: pre-let-7 (pre-let7a1) (structured_RNA)
RNA: UGAGGUAGUAGGUUGUAUAGUUUUAGGGUCACACCCACCACUGGGAGAUAACUAUACAAUCUACUGUCUUUC
For the molecule B1, the binding signal with Dis3L2 wild type [4] was 10 fold weaker than pre-let-7-U15.

On to UUUUUUUUUUUUUUU (ssDNA, 2'-deoxyuridine at all positions) [deoxyU15], for which the binding result in the series with Dis3L2 wild type [5] is given as “binds”.
